The source of these data is US6538103B1, “Lysine binding fragments of angiostatin” (Bristol--Myers Squibb Company, priority 1998, dated 2003).

Experiment [1] concerns Bovine capillary endothelial (BCE) cells. In words: Endothelial cell migration assay (Boyden chamber, bFGF-stimulated). Type of experiment: cell-based. To be noted: bFGF 10 ng/ml, 4 hours migration; read-out: IC50 of inhibition of bFGF-induced BCE cell migration. As to the method:
Bovine capillary endothelial (BCE) cells were harvested from bovine adrenal glands as previously described (33). BCE cells were maintained in DMEM in the presence of 10% bovine calf serum, 1% antibiotics, and 3 ng/ml of bFGF (PeproTech, Rockhill, N.J.). To evaluate endothelial cell migration, a Boyden Chamber-based assay was performed. First, the polycarbonate membranes with […] (Neuro Probe Inc., Cabin John, Md.) were coated with […] of collagen type I following manufacturer's instructions (Becton Dickinson, Bedford, Mass.). […] Each sample was tested in quadruplicate and a representative field in each well was counted at 10 x magnification to determine the number of migrated cells.
Fifty micrograms of the recombinant angiostatin in […] of serum-free DMEM was reduced by incubating with […] of 0.5 M dithiothreitol for 15 minutes at the room temperature. […] The homogeneity of the reduced and alkylated angiostatin was analyzed by SDS-PAGE before being examined for its inhibition on BCE cell migration. The endotoxin concentrations of both native and reduced/alkylated angiostatin were evaluated according to manufacturer's instructions (Associates of Cape Cod, Woods Hole, Mass.). […]

In experiment [2] the test system is endothelial cell proliferation. To be noted: previously described / reported; cited from earlier work.

Consider Angiostatin, for which the IC50 in experiment [1] was approximately 50 nM.

B1: K4: recombinant plasminogen kringle region 4, expressed in Pichia pastoris (protein)
chain: VQDCYHGDGQSYRGTSSTTTTGKKCQSWSSMTPHRHQKTPENYPNAGLTMNYCRNPDADKGPWCFTTDPSVRWEYCNLKKCSGT
modifications: human
notes: recombinant plasminogen kringle region 4, expressed in Pichia pastoris
As to B1, the “effect on endothelial cell proliferation (in words)” value in experiment [2] was “negligible effect on endothelial cell proliferation”. In experiment [1], the IC50 turned out to be 500 nM.
